Patent US20070160576A1, “IL-17A/F heterologous polypeptides and therapeutic uses thereof” (Genentech, Inc., priority 2001, published 2007)

Experiments:
[1] = biological target: T1, PRO5801 (human IL-17RH1 receptor) (Homo sapiens, UniProt Q9NRM6); assay: Receptor/ligand interaction screening assay (immunoadhesin); format: binding
T1 sequence (Q9NRM6 18-502): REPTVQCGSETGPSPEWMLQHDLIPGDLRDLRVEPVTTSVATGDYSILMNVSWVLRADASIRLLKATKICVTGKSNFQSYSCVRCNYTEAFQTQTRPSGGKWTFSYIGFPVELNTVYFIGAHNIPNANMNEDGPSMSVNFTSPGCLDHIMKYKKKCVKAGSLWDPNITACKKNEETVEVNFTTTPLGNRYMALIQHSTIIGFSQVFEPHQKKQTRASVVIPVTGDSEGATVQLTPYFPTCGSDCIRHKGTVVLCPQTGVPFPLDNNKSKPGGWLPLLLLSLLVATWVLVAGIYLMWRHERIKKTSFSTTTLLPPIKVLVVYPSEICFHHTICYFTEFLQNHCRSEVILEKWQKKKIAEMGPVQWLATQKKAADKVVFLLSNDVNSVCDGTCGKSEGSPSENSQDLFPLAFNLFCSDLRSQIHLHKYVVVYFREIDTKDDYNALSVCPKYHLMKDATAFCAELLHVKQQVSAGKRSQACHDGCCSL
Procedure: (§1) In general, the assay is performed as follows. A PRO polypeptide of the present invention suspected of being a ligand for a receptor is expressed as a fusion protein containing the Fc domain of human IgG (an immunoadhesin). Receptor-ligand binding is detected by allowing interaction of the immunoadhesin polypeptide with cells (e.g. Cos cells) expressing candidate PRO polypeptide receptors and visualization of bound immunoadhesin with fluorescent reagents directed toward the Fc fusion domain and examination by microscope. Cells expressing candidate receptors are produced by transient transfection, in parallel, of defined subsets of a library of cDNA expression vectors encoding PRO polypeptides that may function as receptor molecules. Cells are then incubated for 1 hour in the presence of the PRO polypeptide immunoadhesin being tested for possible receptor binding. The cells are then washed and fixed with paraformaldehyde. The cells are then incubated with fluorescent conjugated antibody directed against the Fc portion of the PRO polypeptide immunoadhesin (e.g. FITC conjugated goat anti-human-Fc antibody). The cells are then washed again and examined by microscope. A positive interaction is judged by the presence of fluorescent labeling of cells transfected with cDNA encoding a particular PRO polypeptide receptor or pool of receptors and an absence of similar fluorescent labeling of similarly prepared cells that have been transfected with other cDNA or pools of cDNA. If a defined pool of cDNA expression vectors is judged to be positive for interaction with a PRO polypeptide immunoadhesin, the individual cDNA species that comprise the pool are tested individually (the pool is “broken down”) to determine the specific cDNA that encodes a receptor able to interact with the PRO polypeptide immunoadhesin.
(§2) In another embodiment of this assay, an epitope-tagged potential ligand PRO polypeptide (e.g., 8 histidine “His” tag) is allowed to interact with a panel of potential receptor PRO polypeptide molecules that have been expressed as fusions with the Fc domain of human IgG (immunoadhesins). Following a 1 hour co-incubation with the epitope tagged PRO polypeptide, the candidate receptors are each immunoprecipitated with protein A beads and the beads are washed. Potential ligand interaction is determined by Western blot analysis of the immunoprecipitated complexes with antibody directed towards the epitope tag. An interaction is judged to occur if a band of the anticipated molecular weight of the epitope tagged protein is observed in the Western blot analysis with a candidate receptor, but is not observed to occur with the other members of the panel of potential receptors.

[2] = biological target: human IL-17 receptor (IL-17R, PRO1) (Homo sapiens, UniProt Q96F46); assay: as above; format: binding
Procedure: as §1, §2

[3] = biological target: T2, human IL-17 receptor (IL-17R, PRO1) as tested in the receptor/ligand screen (human, UniProt Q96F46 33-320, limits assumed); assay: receptor/ligand screen (immunoadhesin on transfected cells or co-immunoprecipitation)
T2 construct: also called IL-7R (as misprinted)
Text: (§3) A PRO polypeptide of the present invention suspected of being a ligand for a receptor is expressed as a fusion protein containing the Fc domain of human IgG (an immunoadhesin). Receptor-ligand binding is detected by allowing interaction of the immunoadhesin polypeptide with cells (e.g. Cos cells) expressing candidate PRO polypeptide receptors and visualization of bound immunoadhesin with fluorescent reagents directed toward the Fc fusion domain and examination by microscope. Cells expressing candidate receptors are produced by transient transfection, in parallel, of defined subsets of a library of cDNA expression vectors encoding PRO polypeptides that may function as receptor molecules. Cells are then incubated for 1 hour in the presence of the PRO polypeptide immunoadhesin being tested for possible receptor binding. The cells are then washed and fixed with paraformaldehyde. […]
(§4) In another embodiment of this assay, an epitope-tagged potential ligand PRO polypeptide (e.g., 8 histidine “His” tag) is allowed to interact with a panel of potential receptor PRO polypeptide molecules that have been expressed as fusions with the Fc domain of human IgG (immunoadhesins). […] Potential ligand interaction is determined by Western blot analysis of the immunoprecipitated complexes with antibody directed towards the epitope tag.

[4] = biological target: T3, PRO5801 (human IL-17RH1 receptor) as tested in the receptor/ligand screen (human, UniProt Q9NRM6 18-292, limits assumed); assay: as above
T3 sequence (looked up): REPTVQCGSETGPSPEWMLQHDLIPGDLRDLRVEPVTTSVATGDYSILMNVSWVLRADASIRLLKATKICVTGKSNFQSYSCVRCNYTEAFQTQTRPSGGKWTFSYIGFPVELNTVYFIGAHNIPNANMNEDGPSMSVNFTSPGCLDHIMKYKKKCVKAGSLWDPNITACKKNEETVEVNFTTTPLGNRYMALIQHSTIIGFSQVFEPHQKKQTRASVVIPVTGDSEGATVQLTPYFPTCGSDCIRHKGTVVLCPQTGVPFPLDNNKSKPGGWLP
Text: as §3, §4

B1: PRO1031 (human IL-17B ligand) (ligand, UniProt Q9UHF5 21-180, looked up)
chain: QPRSPKSKRKGQGRPGPLAPGPHQVPLDLVSRMKPYARMEEYERNIEEMVAQLRNSSELAQRKCEVNLQLWMSNKRSLSPWGYSINHDPSRIPVDLPEARCLCLGCVNPFTMQEDRSMVSVPVFSQVPVRRRLCPPPPRTGPCRQRAVMETIAVGCTCIF
For B1, which “binding to IL-17RH1 receptor (PRO5801)” value [1] is on record?
The value was “binds to”.

And the “binding to human IL-17 receptor (IL-17R, PRO1)” value [2]?
Its value is “do not bind”.

Does B1 bind [3]?
Result: no binding

Does B1 bind [4]?
Result: binds
